Assay results: patent publication US20230037911A1 (SHANGHAI HENLIUS BIOTECH, published 2023)
Residue numbers refer to the chain shown, from its start. Names may count otherwise. Each block holds one binder with its values, some of them ahead of it.

Legend:
[1] = biological target: T1, recombinant human TIGIT extra cellular domain (ECD) protein (human, UniProt Q495A1 22-138); assay: ELISA on h-TIGIT ECD; VHH samples heated at 25 to 70 °C for 60 min (thermostability); concentration not given
T1 construct: Purchased protein; it begins with the signal peptide; also called h-TIGIT ECD; human TIGIT ECD
T1 sequence: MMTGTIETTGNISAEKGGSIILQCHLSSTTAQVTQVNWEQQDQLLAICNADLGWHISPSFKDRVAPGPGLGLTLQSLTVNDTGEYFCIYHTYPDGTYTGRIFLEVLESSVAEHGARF
Procedure: (§1) FIGS. 6A and 6B depict thermostability tested for representative clones. The VHH antibody samples were heated from 25 to 70° C. for 60 min. Binding of heated samples to human TIGIT was examined using ELISA or whole cell binding. […] Y axis represents OD450 obtained from the ELISA assay. X axis represents temperature for the treatment. […] Y axis represents percentage of binding to h-TIGIT. X axis represents temperature for the treatment.

[2] = biological target: T2, human TIGIT stably expressed on cells (Jurkat; 293T) (human, UniProt Q495A1 22-244); assay: flow cytometry on Jurkat cells stably expressing h-TIGIT; VHH samples heated at 25 to 70 °C for 60 min (thermostability); concentration not given
T2 construct: the expression vector's insert is not described further; also called h-TIGIT; human TIGIT transfected Jurkat cells
T2 sequence: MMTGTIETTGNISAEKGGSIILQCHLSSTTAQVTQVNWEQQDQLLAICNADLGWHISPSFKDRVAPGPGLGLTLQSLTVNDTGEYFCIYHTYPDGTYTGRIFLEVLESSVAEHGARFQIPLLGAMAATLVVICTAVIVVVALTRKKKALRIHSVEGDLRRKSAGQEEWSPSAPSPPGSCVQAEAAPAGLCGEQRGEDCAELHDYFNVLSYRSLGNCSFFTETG
Procedure: as §1

[3] = biological target: T2, human TIGIT stably expressed on cells …; assay: whole cell binding
[4] = biological target: T2, human TIGIT stably expressed on cells …; assay: cell-based or functional assay
[5] = biological target: human FcγRIIIA on NFAT reporter Jurkat cells (human, UniProt P08637 17-254); assay: cell-based or functional assay
Chain of human FcγRIIIA on NFAT reporter Jurkat cells (P08637 17-254): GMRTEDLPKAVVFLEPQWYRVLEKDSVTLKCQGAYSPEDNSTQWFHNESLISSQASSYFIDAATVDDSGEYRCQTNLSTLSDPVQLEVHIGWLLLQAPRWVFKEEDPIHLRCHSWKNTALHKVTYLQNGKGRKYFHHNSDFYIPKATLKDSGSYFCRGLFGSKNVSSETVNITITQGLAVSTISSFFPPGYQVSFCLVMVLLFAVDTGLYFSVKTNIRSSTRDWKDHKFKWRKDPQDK

[6] = biological target: T3, recombinant ECD of mouse FcγRIV (mouse, UniProt A0A0B4J1G0 21-203); assay: Octet (ForteBio) biolayer interferometry; sensor loaded with recombinant ECD of mouse FcγRIV; antibody at 5 concentrations (not given)
T3 sequence: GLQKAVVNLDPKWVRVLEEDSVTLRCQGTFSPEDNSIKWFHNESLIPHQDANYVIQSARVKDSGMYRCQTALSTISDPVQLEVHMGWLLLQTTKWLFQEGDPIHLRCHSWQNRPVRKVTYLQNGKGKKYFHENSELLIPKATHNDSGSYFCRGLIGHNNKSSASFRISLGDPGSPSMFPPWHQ
Text: (§2) Y axis represents association, dissociation & Rmax. X axis represents time in second.

[7] = biological target: T4, recombinant ECD of human FcγRIIB (human, UniProt P31994 43-217); assay: Octet (ForteBio) biolayer interferometry; sensor loaded with recombinant ECD of human FcγRIIB; antibody at 5 concentrations (not given)
T4 construct: extracellular domain
T4 sequence (looked up): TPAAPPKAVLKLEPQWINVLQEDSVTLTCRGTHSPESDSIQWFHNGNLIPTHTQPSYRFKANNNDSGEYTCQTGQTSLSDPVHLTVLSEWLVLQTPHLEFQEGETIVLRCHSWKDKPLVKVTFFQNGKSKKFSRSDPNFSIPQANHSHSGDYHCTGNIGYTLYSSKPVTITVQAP
Text: as §2

[8] = biological target: T2, human TIGIT stably expressed on cells …; assay: flow cytometry on h-TIGIT stably transfected Jurkat cells; anti-h-IgG Fc AlexaFluor488 secondary
[9] = biological target: T5, recombinant protein of his-tagged human TIGIT ECD (human, UniProt Q495A1 22-138); assay: Octet biolayer interferometry; BsAb loaded on the sensor, his-tagged h-TIGIT ECD at different concentrations (not given), then h-PDL1 ECD
T5 construct: Used in Octet assays; also called h-TIGIT ECD (his-tagged); not shown: his tag
T5 sequence: T1 sequence
Procedure: The sensors were loaded with BsAbs and then injected with different concentrations of recombinant protein of h-TIGIT ECD (his-tagged). After association of BsAbs with h-TIGIT, the sensors were injected again with different concentrations of recombinant protein of h-PDL1 ECD (his-tagged). […] Y axis represents association/disassociation and Rmax, X axis represents time in second.

[10] = biological target: T1, recombinant human TIGIT extra cellular …; assay: blocking ELISA, PVR as competitor

B1: 1A8 VHH (VHH)
VHH: QVQLVESGGGVVQPGRSLRLSCAASGPSFSSYPMGWFRQAPGKERESVAAISSRGRFTYYADSVKGRFTISRDNSKNTLYLQMNSLRAEDTAVYYCAARDSGSGYYSRAQWYDYWGQGTLVTVSS
notes: VHH in bacterial supernatant
binding result [1]: binds
binding result [2]: binds

B7: 2A3-LT-Fc-DLE (Fc mutations S239D, A330L and I332E) (Fc fusion)
chain: QVQLVESGGGVVQPGRSLRLSCAASGGSFSSYPMGWFRQAPGKERESVAAISSDLRFTYYADSVKGRFTISRDNSKNTLYLQMNSLRAEDTAVYYCAARTSGVGYYSRAQWYDYWGQGTLVTVSSEPKSCDKTHTCPPCPAPELLGGPDVFLFPPKPKDTLMISRTPEVTCVVVDVSHEDPEVKFNWYVDGVEVHNAKTKPREEQYNSTYRVVSVLTVLHQDWLNGKEYKCKVSNKALPLPEEKTISKAKGQPREPQVYTLPPSREEMTKNQVSLTCLVKGFYPSDIAVEWESNGQPENNYKTTPPVLDSDGSFFLYSKLTVDKSRWQQGNVFSCSVMHEALHNHYTQKSLSLSPGK
notes: also called DLE mutant
EC50 (nM), TIGIT blockade NFAT luciferase reporter assay, Average [4]: 0.97 nM
EC50 (nM), TIGIT blockade NFAT luciferase reporter assay, Exp 1 [4]: 0.67 nM
EC50 (nM), TIGIT blockade NFAT luciferase reporter assay, Exp 2 [4]: 0.92 nM
EC50 (nM), TIGIT blockade NFAT luciferase reporter assay, Exp 3 [4]: 1.32 nM
EC50 (nM), FcγRIIIA-mediated NFAT luciferase reporter activity, Average [5]: 0.024 nM
EC50 (nM), FcγRIIIA-mediated NFAT luciferase reporter activity, Exp 1 [5]: 0.027 nM
EC50 (nM), FcγRIIIA-mediated NFAT luciferase reporter activity, Exp 2 [5]: 0.0295 nM
EC50 (nM), FcγRIIIA-mediated NFAT luciferase reporter activity, Exp 3 [5]: 0.018 nM
EC50 (nM), FcγRIIIA-mediated NFAT luciferase reporter activity, Exp 4 [5]: 0.02 nM
binding result [6]: binds
binding result [7]: binds

B12: 13H11 VHH (VHH)
VHH: QVQLVESGGGLVQAGGSLRLSCAASGLTFSMYAMGWFRQGPGKERESVAAISSDGRFTYYAASVKGRFTISKDNAKSAAFLQMNSLKPEDTAVYYCAARDSGSGYYSRAQWYDYWGQGTQVTVSS
notes: VHH in bacterial supernatant
inhibition of PVR binding to h-TIGIT [10]: > 90%

B13: 1G1 VHH (VHH)
VHH: B12 VHH with G16D, A23V, L27P, T28S, M31S, A33P, Q120L
notes: VHH in bacterial supernatant
inhibition of PVR binding to h-TIGIT [10]: > 90%

B14: 2B7 VHH (VHH)
VHH: B12 VHH with S21A, L27R, M31S, A33P
notes: VHH in bacterial supernatant
inhibition of PVR binding to h-TIGIT [10]: > 90%

B15: 2B10 VHH (VHH)
VHH: QVKLEESGGGLVQTGDSLRLSCAASSRIFRRYAMGWFRQAPGKEREFVAAITWSGASTTYTDSVKGRFTISRDSAENTTYLQMTSLRPEDTAVYYCAADPWGSVIVGTAEYEYWGQGTLVTVSS
notes: VHH in bacterial supernatant
inhibition of PVR binding to h-TIGIT [10]: > 90%

B16: 1C12 VHH (VHH)
VHH: QVQLVESGGGLVQTGDSLRLSCAASSRIFSRYGMGWFRQAPGKEREFVAAISWNGASTTYTDSVKGRFTISRDSAENTTYLQINSLRPEDTAVYYCAADPWGAVKLGTAEYEYWGQGTQVTVSS
notes: VHH in bacterial supernatant
inhibition of PVR binding to h-TIGIT [10]: > 90%

B17: 3G6 VHH (VHH)
VHH: QVQLVESGGGLVQAGGSLSLSCAASGSIFGISVMGWYRQAPGEQRDLVATLTRAGLTTYGDSVKGRFSISRDSAKNTVYLQMNNLKPEDTAVYYCHANIMESAASTFGRYWGQGTQVTVSS
notes: VHH in bacterial supernatant
inhibition of PVR binding to h-TIGIT [10]: > 90%

B18: 3F10 VHH (VHH)
VHH: QVQLVESGGGLVQAGGSLRLSCASSEHTFSNFPMGWFRQAPGKERNVVAAIDSSGRLTYYADSVKGRFTISKDNAKSTVYLQMNSLKSEDTARYYCAARTGGVGYYSRSSFYNYWGQGTLVTVSS
notes: VHH in bacterial supernatant
inhibition of PVR binding to h-TIGIT [10]: > 90%

Further lines, results first:

binding result [3]: binds
B2: 2A3 MI (2A3 with methionine to isoleucine in CDR2) (VHH)
VHH: B1 VHH with P27G, R54D, G55I, S103V

binding result [3]: binds
B3: 2A3 ML (2A3 with methionine to leucine in CDR2) (VHH)
VHH: B1 VHH with P27G, R54D, G55L, S103V

binding result [3]: binds
B4: 2A3 ML_DE (2A3 with M to L in CDR2 and D to E in CDR3) (VHH)
VHH: B1 VHH with P27G, R54D, G55L, D100E, S103V

binding result [1]: binds
binding result [2]: binds
B5: 6F12 VHH (VHH)
VHH: B1 VHH with S30T, R54D, T58K, R99E
notes: VHH in bacterial supernatant

binding result [1]: binds
binding result [2]: binds
B6: 7F6 VHH (VHH)
VHH: B1 VHH with S28M, R54D, G55P
notes: VHH in bacterial supernatant

binding result [8]: binds
binding result [9]: binds
B8: anti-TIGIT x anti-PDL1 bispecific antibody HCC (VHH 2A3 fused to the C-terminal of the anti-PDL1 heavy chain) (bispecific antibody, human IgG1, lambda)
heavy: not shown
light: QSVVTQPPPVSGAPGQRVTISCTGSSSNVGAGYDVHWYQQLPGTAPKLLIYGNSQRSSGVPDRFSGSKSGTSASLAITGLQAEDEADYYCQTYDSSGSARVVFGGGTKLTVLGQPKAAPSVTLFPPSSEELQANKATLVCLISDFYPGAVTVAWKADSSPVKAGVETTTPSKQSNNKYAASSYLSLTPEQWKSHKSYSCQVTHEGSTVEKTVAPTECS
notes: also called aTIGITx aPDL1-HCC; BsAb HCC

binding result [8]: binds
binding result [9]: binds
B9: anti-TIGIT x anti-PDL1 bispecific antibody HCN (VHH 2A3 fused to the N-terminal of the anti-PDL1 heavy chain) (bispecific antibody, human IgG1, lambda)
heavy: not shown
light: B8 light
notes: also called aTIGITx aPDL1-HCN; BsAb HCN

binding result [8]: binds
binding result [9]: binds
B10: anti-TIGIT x anti-PDL1 bispecific antibody LCC (VHH 2A3 fused to the C-terminal of the anti-PDL1 light chain) (bispecific antibody, human IgG1, lambda)
heavy: not shown
light: QSVVTQPPPVSGAPGQRVTISCTGSSSNVGAGYDVHWYQQLPGTAPKLLIYGNSQRSSGVPDRFSGSKSGTSASLAITGLQAEDEADYYCQTYDSSGSARVVFGGGTKLTVLGQPKAAPSVTLFPPSSEELQANKATLVCLISDFYPGAVTVAWKADSSPVKAGVETTTPSKQSNNKYAASSYLSLTPEQWKSHKSYSCQVTHEGSTVEKTVAPTECSGSGGSGGSGGSGQVQLVESGGGVVQPGRSLRLSCAASGGSFSSYPMGWFRQAPGKERESVAAISSDMRFTYYADSVKGRFTISRDNSKNTLYLQMNSLRAEDTAVYYCAARDSGVGYYSRAQWYDYWGQGTLVTVSS
notes: likely a printing error; also called aTIGITx aPDL1-LCC

binding result [8]: binds
binding result [9]: binds
B11: anti-TIGIT x anti-PDL1 bispecific antibody LCN (VHH 2A3 fused to the N-terminal of the anti-PDL1 light chain) (bispecific antibody, human IgG1, lambda)
heavy: not shown
light: QVQLVESGGGVVQPGRSLRLSCAASGGSFSSYPMGWFRQAPGKERESVAAISSDMRFTYYADSVKGRFTISRDNSKNTLYLQMNSLRAEDTAVYYCAARDSGVGYYSRAQWYDYWGQGTLVTVSSGSGGSGGSGGSGQSVVTQPPPVSGAPGQRVTISCTGSSSNVGAGYDVHWYQQLPGTAPKLLIYGNSQRSSGVPDRFSGSKSGTSASLAITGLQAEDEADYYCQTYDSSGSARVVFGGGTKLTVLGQPKAAPSVTLFPPSSEELQANKATLVCLISDFYPGAVTVAWKADSSPVKAGVETTTPSKQSNNKYAASSYLSLTPEQWKSHKSYSCQVTHEGSTVEKTVAPTECS
notes: also called aTIGITx aPDL1-LCN

inhibition of PVR binding to h-TIGIT [10]: > 90%
B19: 15A5 VHH (VHH)
VHH: QVQLVESGGGLVQAGGSLRLSCAASERTFSSFAMGWFRQAPGKEREVVAAIDPSGRYIYYKDSVKGRFTMSRDNAKSTVYLQMNSLKPDDTARYYCAARIRGEGYYTRSSFYHYWGQGTQVTVSS
notes: VHH in bacterial supernatant
